Consider 8 molecules from patent publication US5801037A, “Expression of signal-peptide-free staphylokinases” (medac Gesellschaft fur klinische spezialpraparate mbH, priority 1991, dated 1998).

The target of data set [1] is plasminogen.
Data set [2] concerns plasminogen. Briefly: Determination of the specific activity of the SAK polypeptides (plasmin release from plasminogen, Chromozym-PL). In kind it is biochemical. As to conditions: plasminogen in excess, activation 10 minutes at 25° C., 405 nm. Here is the method:
The specific activity of a SAK form is defined as that quantity of plasmin (μmol) which is released per minute by 1 μmol of this SAK polypeptide from plasminogen (used in excess).
The protein content of the pertinent SAK polypeptide-containing parent solutions is established by means of the Bio-Rad Protein Assay (Bio-Rad, Munich) using bovine serum albumin as standard protein.
The determination of the plasmin release by the SAK polypeptides is carried out in two steps:
Firstly, dilution series (1 ng to 500 ng) of the SAK polypeptides are produced in 100 mM tris (pH 8.0). A reaction mixture, consisting of 30 μl plasminogen solution 20 mg plasminogen (Fluka), dissolved in 1 ml H2 O, 150 μl 100 mM tris buffer (pH 5.0) and 10 μl activator solution (dilution series SAK polypeptides) is then prepared. This mixture is incubated for 10 minutes at 25° C. […]
Reference samples, calibration samples and the actual measurement samples (each 250 μl) are pipetted into a microtitre plate with 96 cavities (flat bottom) and the adsorption at 405 nm is measured in a multi-channel photometer.
The quantity of plasmin which is released per minute by the SAK polypeptides contained in the starting solutions (dilution samples) can be calculated from the absorption values of the measured samples, taking into account the absorption values of the plasmin calibration series and of the reference samples. […]

Data set [3] deals with human plasminogen isolated from human plasma (human, UniProt P00747). Nature of the data set: analytical affinity chromatography on immobilized human plasminogen, 16° C., 0.1M tris-HCl pH 7.3.

The Kd is a measure of binding affinity in units of concentration. A lower Kd goes with higher affinity.

Consider artificial allelic SAK form SAKM26C, for which the specific activity in µmol plasmin/(µmol SAK × min) (µmol plasmin/(µmol SAK × min)) with plasminogen [1] was 21.1.

In the data set with plasminogen [1], artificial allelic SAK form SAKM26L gave a specific activity in µmol plasmin/(µmol SAK × min) (µmol plasmin/(µmol SAK × min)) of 36.6.

As to SAK fragment form N14ΔSAK42D, the specific activity in µmol plasmin/(µmol SAK × min) (µmol plasmin/(µmol SAK × min)) with plasminogen [1] was determined as 8.1.

Molecule mature native staphylokinase SAK42D returned a specific activity in µmol plasmin/(µmol SAK × min) (µmol plasmin/(µmol SAK × min)) in the data set with plasminogen [1] of 16.2.

For SAK fragment form N10ΔSAK42D, the specific activity in µmol plasmin/(µmol SAK × min) (µmol plasmin/(µmol SAK × min)) with plasminogen [1] turned out to be 22.7.

B1: SAK42D: signal-peptide-free mature native staphylokinase from S. aureus phage 42D, 136 amino acids, Seq. Id. No. 1 (protein)
chain: MSSSFDKGKYKKGDDASYFEPTGPYLMVNVTGVDGKRNELLSPRYVEFPIKPGTTLTKEKIEYYVEWALDATAYKEFRVVELDPSAKIEVTYYDKNKKKEETKSFPITEKGFVVPDLSEHIKNPGFNLITKVVIEKK
Take B1: the specific activity in the data set on plasminogen [2] is listed as 16.2 μmol plasmin/(μmol SAK × min).

B2: SAK fragment form N14ΔSAK42D (other)
chain: MASYFEPTGPYLMVNVTGVDGKRNELLSPRYVEFPIKPGTTLTKEKIEYYVEWALDATAYKEFRVVELDPSAKIEVTYYDKNKKKEETKSFPITEKGFVVPDLSEHIKNPGFNLITKVVIEKK
In turn, B2 registered a Kd in data set [3] of 4.4 µM.

B3: SAK fragment form N10ΔSAK42D (other)
chain: MKGDDASYFEPTGPYLMVNVTGVDGKRNELLSPRYVEFPIKPGTTLTKEKIEYYVEWALDATAYKEFRVVELDPSAKIEVTYYDKNKKKEETKSFPITEKGFVVPDLSEHIKNPGFNLITKVVIEKK
B3: the Kd in data set [3] was 2.21 µM.
